Laboratory results as given in patent US7098304B1, “Assay for the diagnosis of schizophrenia based on a new peptide” (Yeda Research and Development Co. Ltd., priority 1998, dated 2006).

B1: Enolase from Rabbit: commercially available rabbit protein enolase (protein)
chain: AMQKIFAREILDSRGNPTVEVDLHTAKGRFRAAVPSGASTGIYEALELRDGDKSRYLGKGVLKAVEHINKTLGPALLEKKLSVVDQEKVDKFMIELDGTENKSKFGANAILGVSLAVCKAGAAEKGVPLYRHIADLAGNHDLVLPVPAFNVINGGSHAGNKLAMQEFMILPVGASSFREAMRIGAEVYHHLKGVIKAKYGKDATNVGDEGGFAPNILENNEALELLKTAIQAAGYPDKVVIGMDVAASEFHRNGKYDLDFKSPDDPARHITGQKLGELYKSFIKNYPVVSIEDPFDQDDWATWTSFLSGVDIQIVGDDLTVTNPKRIAQAVEKKACNCLLLKVNQIGSVTESIQACKLAQSNGWGVMVSHRSGETEDTFIADLVVGLCTGQIKTGAPCRSERLAKYNQLMRIEEALGDKAVFAGRKFRNPKAK
B2: G-3-P-Dehydrogenase from bacillus subtilis: glyceraldehyde-3-phosphate dehydrogenase (G3PD) enzyme from bacillus subtilis (protein)
chain: AVKVGINGFGRIGRNVFRAALNNPEVEVVAVNDLTDANMLAHLLQYDSVHGKLDAEVSVDGNNLVVNGKTIEVSAERDPAKLSWGKQGVEIVVESTGFFTKRADAAKHLEAGAKKVIISAPANEEDITIVMGVNEDKYDAANHDVISNASCTTNCLAPFAKVLNDKFGIKRGMMTTVHSYTNDQQILDLPHKDYRRARAAAENIIPTSTGAAKAVSLVLPELKGKLNGGAMRVPTPNVSLVDLVAELNQEVTAEEVNAALKEAAEGDLKGILGYSEEPLVSGDYNGNKNSSTIDALSTMVMEGSMVKVISWYDNESGYSNRVVDLAAYIAKKGL

What was measured:
[1] = system: NSDAs (non-schizophrenic derived antibodies); assay: Reactivity of proteins to NSDAs (platelet autoantibodies from control non-schizophrenic individuals), blot with anti-human Fc-HRP; type: binding; details: number of NSDA samples that reacted positively with the enzyme, of 8 controls
Procedure: (§1) 1. Platelets and Anti-Platelet Autoantibodies Venous blood (20 ml) was drawn with heparin as anticoagulant from patients and control subjects. Platelet rich plasma (PRP) was obtained by centrifugation (100 g for 20 mins) at room temperature. Plasma free platelets were obtained by washing them three times with phosphate buffered saline (PBS) supplemented with 10 ml mM EDTA as anticoagulant (4000 g; 15 mins; 4° C.). For the isolation of anti-platelet antibodies, the platelets were incubated with 0.1 M glycine/10 mM EDTA, pH 2.8, for 10 min. at room temperature and then centrifuged (4000 g; 15 min; 4° C.). The supernatant containing the anti-platelet antibodies, was neutralized with saturated Na2PO4 solution and stored at −20 until use. 2. Preparative Isoelectric Focusing
(§2) The fractions were analyzed for immuno-reactivity by polyacrylamide (10%) gel electrophoresis, blotting the proteins onto PVDF membranes and probing the membrane with 1 ml auto-antibodies in 50 ml incubation buffer. Anti-human Fc conjugated to horseradish peroxidase (goat) from SIGMA (1:500 dilution) and Fast-DAB™ (SIGMA) or 4-Chloro-naphthol (SIGMA) were used as color reagent in order to detect bound human anti-platelet antibodies.
(§3) Every fifth fraction (0.1 ml) was dot blotted onto PVDF membranes using the DotBlot device (96 wells) from BioRad. Immuno-reactive fractions were then detected as described above (1.3) […]

[2] = system: SDAs (schizophrenic derived antibodies); assay: Reactivity of proteins to SDAs (platelet autoantibodies from schizophrenic patients), blot with anti-human Fc-HRP; type: binding; details: number of SDA samples that reacted positively with the enzyme, of 8 patients
Procedure: as §1, §2, §3

Row | Molecule | Controls (n = 8) Positive [1] | Patients (n = 8) Positive [2]
1 | B1 | 1/8 | 7/8
2 | B2 | 2/8 | 1/8
